# Source: US20260242478A1 (published 2026)
# Where no end group is shown, it is not given here.
# Tests used:
# [1] = molecular target: T1, Anti-CD28 scFv (VH - linker 1 - VL) (biotinylated (site not stated)); assay: phage ELISA as above, wells pre-incubated with soluble CD28 (competitor);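 further: ELISA of crude clonal phage supernatants added to wells pre-treated with soluble CD28 in blocking buffer, bound phage read out with HRP-conjugated anti-M13 antibody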
# T1 construct: Captured as biotinylated scFv on neutravidin plates in the panning ELISA
# T1 sequence (scFv, as listed by the source): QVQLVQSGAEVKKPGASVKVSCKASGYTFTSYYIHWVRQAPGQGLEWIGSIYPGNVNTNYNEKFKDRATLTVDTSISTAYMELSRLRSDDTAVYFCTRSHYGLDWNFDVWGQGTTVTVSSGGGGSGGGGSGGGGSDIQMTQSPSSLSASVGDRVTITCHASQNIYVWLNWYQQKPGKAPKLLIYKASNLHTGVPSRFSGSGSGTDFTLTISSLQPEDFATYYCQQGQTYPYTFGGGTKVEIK
# [2] = molecular target: T1, Anti-CD28 scFv (VH - linker 1 - VL); assay: phage ELISA: biotinylated anti-CD28 scFv on neutravidin plate, clonal phage supernatant, anti-M13-HRP detection;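 further: competition format: before phage supernatant was added, wells were preincubated with soluble CD28 protein or with blocking buffer only, and phage were added without an intervening wash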
# Method: (§1) Clonal phage were harvested as crude supernatants and screened via standard enzyme linked immunosorbent assays (ELISAs). […] Prior to the addition of clonal phage, wells were incubated with blocking buffer and CD28 soluble protein or blocking buffer alone. Without washing or aspirating, clonal phage supernatants were then added to the wells and incubated for a short time. Wells were then washed followed by detection of bound phage using a horse radish peroxidase conjugated anti-M13 antibody.
# [3] = molecular target: T2, anti-CD28 scFv (VH - linker 1 - VL) (biotinylated (site not stated)); assay: phage ELISA as above, wells pre-incubated with soluble CD28 as competitor
# T2 sequence (scFv, as listed by the source): as above
# [4] = molecular target: T2, anti-CD28 scFv (VH - linker 1 - VL); assay: phage ELISA; biotinylated anti-CD28 scFv on neutravidin plate, clonal phage supernatant, anti-M13 HRP detection;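 further: before phage addition, wells were pre-incubated with blocking buffer plus soluble CD28 protein, or blocking buffer only, with no wash in between, signal reflects phage remaining bound after washing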
# Method: as §1
# [5] = molecular target: Anti-CD28 scFv (VH - linker 1 - VL) (biotinylated (site not given)); assay: phage binding ELISA on anti-CD28 scFv plate; wells pre-incubated with soluble CD28 as competitor;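 further: clonal phage supernatants tested, bound phage read out with an HRP-linked anti-M13 antibody, reference wells received blocking buffer lacking CD28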
# Sequence of Anti-CD28 scFv (VH - linker 1 - VL) (biotinylated (site not given)) (scFv, as listed by the source): as above
# [6] = molecular target: T3, anti-CD28 scFv (VH - linker 1 - VL) (biotinylated (site not given)); assay: phage ELISA as above; wells pre-incubated with soluble CD28 as competitor;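 further: crude clonal phage supernatants tested, with bound phage detected by HRP-conjugated anti-M13 antibody, and reference wells given blocking buffer without CD28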
# T3 construct: Biotinylated scFv captured on neutravidin coated plates in the panning ELISA
# T3 sequence (scFv, as listed by the source): as above
# [7] = molecular target: T4, Anti-CD28 scFv (VH - linker 1 - VL) (biotinylated (site not stated)); assay: phage ELISA as above, wells pre-incubated with soluble CD28 (competitor);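 further: ELISA of crude clonal phage supernatants added to wells pre-treated with soluble CD28 in blocking buffer, bound phage read out with HRP-conjugated anti-M13 antibody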
# T4 construct: Biotinylated scFv captured on neutravidin coated plates in the panning ELISA
# T4 sequence (scFv, as listed by the source): as above
binder,measurement,setting,value
MDWCPRHMWHECFH [Phage-402],CD28 scFv signal in presence of CD28,[1],0.171
same,CD28 scFv signal,[2],1.81
MDWCPFDMWADCFF [Phage-391],CD28 scFv signal in presence of CD28,[1],0.215
same,CD28 scFv signal,[2],2.53
MDWCPWILWNECFN [Phage-179],CD28 scFv signal in presence of CD28,[3],0.137
same,CD28 scFv signal,[4],0.581
"MDWCPRSIWYLCFN (cysteine pairing not given here; also: displayed on phage as fusion to pIII, fusion limits and linker not given here, Clonal phage of the Peptide-9 library, tested as crude phage supernatant; not shown: pIII of the bacteriophage) [Phage-278]",CD28 scFv signal in presence of CD28,[5],1.34
MDWCPMSMWAFCFD [Phage-405],CD28 scFv signal in presence of CD28,[1],0.16
same,CD28 scFv signal,[2],1.41
MDWCPPYLWYECFA [Phage-172],CD28 scFv signal in presence of CD28,[3],0.094
same,CD28 scFv signal,[4],0.692
MDWCPRDMWFECFN [Phage-393],CD28 scFv signal in presence of CD28,[1],0.778
same,CD28 scFv signal,[2],2.42
MDWCPRSMWDSCFN [Phage-399],CD28 scFv signal in presence of CD28,[1],0.142
same,CD28 scFv signal,[2],2.02
MDWCPRSLWHYCFA [Phage-101],CD28 scFv signal in presence of CD28,[6],0.338
MDWCPRYLWAECFY [Phage-102],CD28 scFv signal in presence of CD28,[6],0.354
MDWCPAYLWAECFS [Phage-175],CD28 scFv signal in presence of CD28,[3],0.12
same,CD28 scFv signal,[4],0.64
MDWCPSDLWHECFH [Phage-176],CD28 scFv signal in presence of CD28,[3],0.164
same,CD28 scFv signal,[4],0.629
MDWCPRYMWSDCFF [Phage-394],CD28 scFv signal in presence of CD28,[1],0.377
same,CD28 scFv signal,[2],2.28
MDWCPRDLWDLCFF [Phage-104],CD28 scFv signal in presence of CD28,[6],0.156
MDWCPRALWHECFT [Phage-108],CD28 scFv signal in presence of CD28,[6],0.191
MDWCPLDMWVLCFA [Phage-401],CD28 scFv signal in presence of CD28,[1],0.169
same,CD28 scFv signal,[2],1.84
MDWCPSDMWHECYA [Phage-194],CD28 scFv signal in presence of CD28,[3],0.2
same,CD28 scFv signal,[4],2.47
MDWCPSDMWANCFF [Phage-389],CD28 scFv signal in presence of CD28,[7],0.316
MHWCPRYLWDECFN [Phage-180],CD28 scFv signal in presence of CD28,[3],0.127
same,CD28 scFv signal,[4],0.55
MDWCPSYLWDQCFF [Phage-188],CD28 scFv signal in presence of CD28,[3],0.079
same,CD28 scFv signal,[4],0.083
MDWCPKHMWFMCFN [Phage-195],CD28 scFv signal in presence of CD28,[3],0.372
same,CD28 scFv signal,[4],2.4
MDWCPRYMWYQCFS [Phage-196],CD28 scFv signal in presence of CD28,[3],0.357
same,CD28 scFv signal,[4],2.36
MDWCPRDLWHECFN [Phage-103],CD28 scFv signal in presence of CD28,[6],0.218
MDWCPRDLWAECFN [Phage-107],CD28 scFv signal in presence of CD28,[6],0.207
MDWCPIYLWDECFN [Phage-106],CD28 scFv signal in presence of CD28,[6],0.215
